Measured values taken from US6168954A, “Soybean glutathione-S-transferase enzymes” (E. I. du Pont de Nemours & Company, priority 1999, dated 2001).

B1: ssm.pk0067.g5: soybean type III GST encoded by cDNA insert in clone ssm.pk0067.g5 (protein)
chain: MASYHEEEVRLLGKWASPFSNRVDLALKLKGVPYKYSEEDLANKSADLLKYNPVHKKVPVLVHNGNPLPESLIIVEYIDETWKNNPLLPQDPYERALARFWSKTLDDKILPAIWNACWSDENGREKAVEEALEALKILQETLKDKKFFGGESIGLVDIAANFIGYWVAILQEIAGLELLTIEKFPKLYNWSQDFINHPVIKEGLPPRDELFAFFKASAKK
B2: se6.pk0037.h4: soybean type III GST encoded by cDNA insert in clone se6.pk0037.h4, expressed in E. coli (protein)
chain: MAATQEDVTLLGVVGSPFVCRVQIALKLKGIECKFLEENLANKSDLLLKSNPVYKKVPVFIHNEKPIAESLVIVEYIDETWKNNPILPSDPYQRSFARFWSKFIDDKIVGASWKSVFTVDEKEREKNVEESLEALQFLENELQDKRFFGGDEFGFVDIAGVFIAFSIPIFQEVAGLQLFTSEKFPKLFKWSQELINHPVVKDVLPPREPLFAFFKSLYESLSASK
B3: ses8w.pk0028.c6: soybean type III GST encoded by cDNA insert in clone ses8w.pk0028.c6 (protein)
chain: MAANQEDVKLLGATGSPFVCRVQIALKLKGVQYKFLEENLRNKSELLLKSNPVHKKVPVFIHNEKPIAESLVIVEYIDETWKNNPILPSDPYQRALARFWSKFIDDKVVGAAWKYIYTVDEKEREKNVEESYEALQFLENELKDKKFFGGEEIGLVDIAAVFIAFWIPIIQEVLGLKLFTSEKFPKLYKWSQEFINHPVVKQVLPPRDQLFAFYKACHESLSASK
B4: se3.03b09: soybean type III GST encoded by cDNA insert in clone se3.03b09 (protein)
chain: MSKSEDLKLLGGWFSPFALRVQIALNLKGLEYEVVEETLNPKSDLLLKSNPVHKKIPVFFHGDKVICESAIIVEYIDEAWTNVPSILPQNAYDRANARFWFAYIDEKWFTSLRSVLVAEDDEAKKPHFEQAEEGLERLEEVFNKYSEGKAYFGGDSIGFIDIGFGSFLSWMRVIEEMSGRKLLDEKKHPGLTQWAETFAADPAVKGILPETDKLVEFAKILQLKWTAAAAAAAK

Columns and labels:
Format in all cases: biochemical
Conditions in all cases: 0.4 mM electrophilic substrate, 4 mM glutathione, 0.1 M MOPS pH 7.0, corrected for uncatalyzed reaction
[1] = GST conjugation activity with Atrazine (HPLC)
Source text: (§1) The GST enzymes, expressed and purified as described in Example 5 were screened for their ability to metabolize a variety of substrates. Substrates tested included the three herbicide electrophilic substrates chlorimuron ethyl, alachlor, and Atrazine, and four model electrophilic substrates, 1-chloro-2, 4-dinitro-benzene (CDNB), ethacrynic acid, t-stilbene oxide, and 1,2-epoxy-3-(p-nitro-phenoxy) propane. The enzymes were purified as described in Example 5 and used in the following assay.
(§2) For each enzyme, the conjugation reaction with each electrophilic substrate was performed by incubating 0.3 to 30 μg enzyme in 0.1 M MOPS (pH 7.0) containing 0.4 mM of the electrophilic substrate. The reaction was inititated by the addition of glutathione to a final concentration of 4 mM. After 5 to 30 min, the reaction was terminated by the addition of 45 μL acetonitrile, microfuged for 10 min to remove precipitated protein, and then the supematent was removed and added to 65 μL of water. This sample was chromatographed on a Zorbax C8 reverse phase HPLC column (3 μm particle size, 6.2 mm×8 cm) using a combination of linear gradients (flow=1.5 mL/min) of 1% H3 PO4 in water (solvent A) and 1% H3 PO4 in acetonitile. The gradient started with 5% solvent B, progressing from 5% to 75% solvent B between 1 and 10 min, and from 75% to 95% solvent B between 10 and 12 min. Control reactions without enzyme were performed to correct for uncatalyzed reaction. Quantitation of metabolites were based on an assumption that the extinction coefficient of the conjugate was identical to that of the electrophilic substrate.
(§3) Activities are related to the activity of a known and previously isolated and purified GST enzyme, GH2/4 (also called GST 26) (Czarnecka et al., Plant Molecular Biology 3:45-58 (1984); Ulmasoz et al., Plant Physiol 108:919-927 (1995)).

[2] = GST conjugation activity with ethacrynic acid (HPLC)
Source text: as §1, §2, §3

[3] = GST conjugation activity with 1,2-epoxy-3-(p-nitrophenoxy)propane (HPLC)
Source text: as §1, §2, §3

[4] = GST conjugation activity with alachlor (HPLC)
Source text: as §1, §2, §3

[5] = GST conjugation activity with CDNB (HPLC)
Source text: as §1, §2, §3

[6] = GST conjugation activity with chlorimuron ethyl (HPLC)
Source text: as §1, §2, §3

[7] = GST conjugation activity with t-stilbene oxide (HPLC)
Source text: as §1, §2, §3

| Molecule | Activity of soybean GST enzyme, Atrazine [1] [nmol/min/mg] | Activity of soybean GST enzyme, Ethacrynic Acid [2] [nmol/min/mg] | Activity of soybean GST enzyme, 1,2-epoxy-3-(p-nitrophenoxy)propane [3] [nmol/min/mg] | Activity of soybean GST enzyme, Alachlor [4] [nmol/min/mg] | Activity of soybean GST enzyme, CDNB [5] [nmol/min/mg] | Activity of soybean GST enzyme, Chlorimuron Ethyl [6] [nmol/min/mg] | Activity of soybean GST enzyme, T-Stilbene Oxide [7] [nmol/min/mg] |
| --- | --- | --- | --- | --- | --- | --- | --- |
| B1 | 0.03 | 13 | 19 | 4 | 1394 | 0.1 | 0.49 |
| B2 | 0.19 | 13 | 1 | 1 | 2364 | 0.1 | 0.06 |
| B3 | 1.40 | 17 | 12 | 10 | 515 | 0.2 | 4.04 |
| B4 |  | 1 | 20 | 168 | 14364 | 4.4 | 0.07 |
